A short description of the data set: yeast display, Sf9 membrane polyspecificity reagent, FACS + sequencing; frameworks hold sequencing errors. Summed up:
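Synthetic nanobody libraries on Saccharomyces cerevisiae BJ5465 were galactose-induced for 36–48 hours, stained 1 hour at 4 °C with 10% biotinylated, detergent-solubilized Sf9 membrane reagent and enriched on streptavidin microbeads. FACS then separated cells into low and high (top ~1%) gates by anti-HA (expression) and streptavidin (reagent binding) fluorescence. Genes were colony-PCR amplified, MiSeq 2 × 250 sequenced and CDR-length filtered. A clone's polyreactivity label is that of its gate of origin.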
Regarding “QVQHVESGGGLVQAGGSLRLSCAASGFIFTANAMGWYRQAPGKERELVAGIRSGSSTYYADSVKGRFTISRDNAKNTVYLQLNSLKPEDTAVYYCNAEKFNFIYAYEYWGKGTQVTVSS”, the “polyreactivity (PSR sort gate)” value is listed as “low polyreactivity”.

Take “QVQLVESGGGLVQAGGSLRLSCAASGSTFYWYAMGWYRQAPGKEREFVAAISLGSGSTYYADSVKGRFTISRDNAKNTVYLQMNSLKPEDTAVYYCATVPWYIKVGQKRNDYWGQGTQVTVSS”: the “polyreactivity (PSR sort gate)” value was “high polyreactivity”. To “QVQLVESGGGLVQAGGSLLLSCAASGLTFYPNAMGWYRQAPGKERELVAAISSSGDSTYSADSVKVRFTISRDNAKNTVYLQMNSLKPEDTAVYYCAADLGYYNARWYEYWGQGTQVTVSS” belongs “high polyreactivity”; to “QVQLVESGGGLVQAGGSLRLSCAASGIIFDSYAMGWYRQAPGKERELVAAITSDSGRTYYADSVKGRFTISRDNAKKTVYLQMNSLKPEDTAVYYCAKRWDGPYDYWGQGTQVTVSS”, “low polyreactivity”; to “QVQLVESGGGLVQAGGSLRLSCAASGSTSDINAMGWYRQAPGKERELVAAITSRSGSTYYADSVKGRFTISRDNAKNTVYLQMNSLKPEDTAVYYCAAEYVRFYWYTSDYWGQGTQVTVSS”, “low polyreactivity”. Regarding “QVQLVESGGGLVQGGGSLRLSCAASGFTFGRYTMGWYRQAPGKERELVAPISWSGGSTFYADSVKGRFTISRDNAQNTVYFQMNSLKPEDTAVYNCDTRLKSVSGGYNYWGQGTQVTVSS”, the “polyreactivity (PSR sort gate)” value is “high polyreactivity”. As to “QVQLVESGGGLVQAGGSLRLSCAASGRTFLINAMGWYRQAPGKEREMVAAITQSGGSTYYADSVKGRFTISRDNAKYTVYLQMNSLKPEDTAVYNCNATPDSVRWDYALSVVRYEYWGQGTQVTVSS”, the “polyreactivity (PSR sort gate)” value was “low polyreactivity”. To “QVQLVESGGGLVQAGGSLRLSCAASGTFYYYAMGWYRQAPGKERELVAAISNGDSTTYADSVKGRFTISRDNAKNTVYLQMTSLKPEDTAVYYCAAYRYTPRTSRGYYYWGQGTQVTVSS” belongs “low polyreactivity”; to “QVHLVESGGGLVQAGGSLRLSCAASGRIFYGYVMGWYRQAPGTEREFVAAITWSAGSTYYADSVKGRFTISRDNAKNTVYLQMNSLKPEDTALYYCADGGGHYQEYLMEDYWGQGTQVTVSS”, “high polyreactivity”. To “QVQLVESGGGLVQAGCSLRLSCAASGLTLRHYAMGWYRQSPGKERELVAAISWNTGSTYYADSVKGRFTISRDNAKNTVYLQMNSLKPEDTAVYYCAAVPRAYYQGLYYWGQCTQVTVSS” belongs “high polyreactivity”; to “QVQLVESGGGLVHAGGSLRLSCAASGLTFVDNAMGWYRQAPGKERELVAAITKRGGRTYYADSVKGRFTISRDNAKNTVYSQMNSLKPEDTAVYYCAREAGNDSSRRLDYWGQGTQVTVSS”, “low polyreactivity”. “QVQLVESGGGLVQAGGSLRLSCAASGLTFCPNAMGWYRQAPGKEREFVASISISGRTYYADSVKGRFTISRDNAKNTVYLLMNSLKPEDTAVYYCAARYVRSGLYRKYDYWGQGTQVTVSS”: the “polyreactivity (PSR sort gate)” value is given as “high polyreactivity”. Take “QVQLVESGGGLVQAGGSLRLSCAASGLIFDYYAMGWYRQAPGKERELVAAITSSSGITYYADSVKGRFTISRDNAKNTVYLQMNSLKPEDTAVYYCAAYTTYKLYEYDYWGQGTQVTVSS”: the “polyreactivity (PSR sort gate)” value was “low polyreactivity”. As to “QVQLVESGGGLVQAGGSLRLSCAASGSIFERYAMGWYRQAPGKERELVAGISTDGSTYADSVKGRFTISRDNAKNTVYLQMNSLKPEDTAVYYCNKRRGFSAWYDYWGQGTQVTVSS”, the “polyreactivity (PSR sort gate)” value is “low polyreactivity”. On to “QVQLVESGGGLVQAGGSLRLSCAASGFIFSGYAMGWYRQAPGKERELVATISGSGGSTYYADSVKGRFTISRDNAKNTVYLQMNSLKPEDTAVYYCAKRSIVGYRYSGYDYWGQGTQVTVSS”, for which the “polyreactivity (PSR sort gate)” value is “high polyreactivity”.

In the case of “QVQLVESGGGLVQAGGSLRLSCAASGLILYHYAMGWYRQAPGKERELVAAISRSGGRTSYADSVKGRFTISRDNAKNTVYLQMNSLKPEDTAVFYCAAEKVGTRPSRDYDYWGQGTQVTVSS”, the “polyreactivity (PSR sort gate)” value is recorded as “high polyreactivity”. The value for “QGQLVESGGGLVQAGGSLRLSCAASGFTFKFYAMGWYRQAPGKEREFVAAISGSGGSTYYAHSVKGRFTISRDNAKNTVYLQMNSLKPEDTAVYYCAAEVPGKPYGRSRYSFRHDYWGQGTQVTVSS” was “low polyreactivity”. On to “QVQLVESGGGLVQAGGSLRLSCAASGRTFYDYARGWYRQGPGKERELVAAITSGGSTNYADSVKGRFTISRDNAKNTVYLQMNSLKPEDTAVYYCAADDCYVWGFDMNYWGQGTQVTVSS”, for which the “polyreactivity (PSR sort gate)” value is on record as “high polyreactivity”. To “QVQLVESGGGLFQAGGSLRLSCAASGTTLVRYAMGWYRQAPGIERELVASISYSGGSTHYADSVKGRFTISRDNAKNTVYLQMNSLKPEDTAVDYWAARPYYSWGGHYYWGQGTQVTVSS” belongs “high polyreactivity”. For “QVQLVESGGGLVQAGGSLRLSCAASGFTLSYYAMGWYRQAPGKERELVAAMTWSDTSTYYADSVKGRFTISRDKAKNTVYVQMNSLKPEDTAVYYCAAEDEWVTWGWGYYYWGQGTQVTVSS”, the “polyreactivity (PSR sort gate)” value was “high polyreactivity”. To “QVQLVESGGGLVQAGGSLRLSCAASGSTFGPYAMGWYRQAPGKERELVAAITWNGGSTYYADSVKGRFTISRDNAKNSVYLQMNSLKPEDTAVSFCNAVGSYGDFGYWGQGTQVTVSS” belongs “high polyreactivity”; to “QVQLVESGGGLVQAGGSLRLSCAASGFTFVAYAMGWYRQAPGKERELVAAISKSGGNTYYADSVKGRFTISRDNAKNTVYLQMNSLKPEDTAVYYCAAPRRYAWGQVNYWGQGTQVTVSS”, “high polyreactivity”. For “QVQLVESGGGLVQAGGSLRLSCAASGSTFTVYAMRWYRQAPGKERELVADITGGGRTYYADSVKGRFTISRDNAKNTVYLQMNSLKPEDTAVYYCAKKYSWRYARVYSLHFDYWGQGTQVTVSS”, the “polyreactivity (PSR sort gate)” value is given as “high polyreactivity”. With “QVQLVESGGGLVQAGGSLRLSCAASGFTFVRYAMGWYRQAPGKERELVAAISSGGSTNYADSVKGRFTISRDNAKNTVYLQMNSLKPEDTAVYYCNAVSRKVYPGPMDYWGQGTQVTVSS”, the “polyreactivity (PSR sort gate)” value is on record as “high polyreactivity”. To “QVQLVESGGGLVQAGGSLLLSCAASGFTFSYYAMGWYRQAPGKERDLVAAISWDGDSTYYADSVKGRFTISRDNAKNTVYLQMNSLKPEDTAVYYSAAEFSYYWDGYDYWGQGTQVTVSS” belongs “high polyreactivity”.

Regarding “QVQLVESGGGVVQAGGSLRLSCAASGSTFGYYAMGWYRQAPGKERELVAAISQGAGRTYFADSVKGRFTISRDIAKNTVYLQMNSLKPEDTAVYYCAGSVTVHRWAYGYCGQGTQVTVSS”, the “polyreactivity (PSR sort gate)” value was “high polyreactivity”. To “QVQLVESGGGLVQAGGSLRLSCAASGRTFPYYAMGWYRQAPGKERELVAAIRGTAGNTYYADSVKGRFTISRDNAKNTVYLQMNSLKPEDTAVYYCAKGRPYWSPLTGYNYWGQGTQVTVSS” belongs “low polyreactivity”. To “QVQLVESGGGLVQAGGSLRLSCAASGSIFRYYVMGWYRQAPGKERELVAAISGGSTYYADSVKGRFTISRDNAKNTVYLQMNSLKPEDTAVYYCAAEQWSTGYYYWGQGTQVTVSS” belongs “high polyreactivity”. To “QVQLVESGGGLVQAGGSLRVSCAASGSTFVRNAMGGYRQAPGKETELVAFISTSGTRTHYADSVKGRFTISRDNAKNTVYFQMNSLKPEDTAVYYCNRRVYGIVTRDYWGQGTQVTVSS” belongs “high polyreactivity”; to “QVQLVESGGGLVKAGGSLRLSCDASGRIFKYYAMGWYRPAPGKEWELVAAISSVGYTNYADSVKGRFTISRDNAKNTVYLQLNSLKPEDTAVYYCAAPYQHYDVNYDSWGQGTQVTVSS”, “low polyreactivity”; to “QVQLQGSGGGLVQAGGSLRQSCAASGYIFQNVPMGWNRQAPGKERELVAGIDNGTSTNYADSVNGRFTISRDNAKNTVYLQMNSLKPEDTAVYYCAAAGQADDTLGYWGQGTQVTVSS”, “low polyreactivity”. For “QVQLVESGGGIVQAGGSLRLSCSASGSIFPLDGMGSYRQAPGKERELVAAISIGGRTNYADSVKGRFTISRDNAKNTVYLQMTSLKPEDTAVYYCNAVSKFVYRNRILWYDYWGQGTQVTVSS”, the “polyreactivity (PSR sort gate)” value was “high polyreactivity”. Turning to “QVQLVESGGGLVQAGGRLRLSCAASGRIFVAYVMGWYRQAPGKERELVAAITRGVRTYYADSVKGRFTISRDNAKNTVYLQMNSLKPEDTAVYYCAARGISAFSQDYEYYYWGQGTQVTVSS”, the “polyreactivity (PSR sort gate)” value is recorded as “high polyreactivity”. The value for “QVQLVESGGGIVQAGGSLRLSCAASGRILSRYAMGWYRQAPGKESDLVADISSGGRTHYADSVKGRFTISRDNAKNTVYFQMNSLKPEDSAVYYCAKDYTPYSRRLNSGGYYYWGQGTQVTVSS” was “high polyreactivity”. “QVQLVESGGGLVQAGGSLRLSCAASGLTFYRYAMGWYRQSPGKERELVAAISRGGTSTYYADSVKGRFTISRDNAKNTVYLQMSSLKPEDTAVYYCARLVKPYNYGRYGYWGQGTQVTVSS”: the “polyreactivity (PSR sort gate)” value is on record as “high polyreactivity”. On to “QVQLVESGGGLVQAGGSLRLSCAASGRTFRYYTMGSYRPAPGKEREFVAAISSTGGTYYADSVKGRFTISRDNAKNTVYLQMNSLKPEDTAVYYCAKVYFWGALSPDKYDEDYWGQGTQVTVSS”, for which the “polyreactivity (PSR sort gate)” value is on record as “low polyreactivity”. Consider “QVQLVESGGGLVQAGGSLRLSCASSGFTFRYYTMGLYRQAPGKERELVASITWRGGSTYYADSVKGRFTISRDNAKNTVYLQMNCLKPEDTAVYYCNAERPYQYYPGIYRWYYYWGQGTQVTVSS”, for which the “polyreactivity (PSR sort gate)” value was “low polyreactivity”.

Regarding “QVQLVESGGGLVQAGGSLRLSCAASGFIFFYYAMGWYRQAHGKERELVAAISASGGSTYYADSVKGRFTISRDNAKNTVYLQMNSLKPEDTAVYYCATDPISRARLYGQRDYWGQGTQVTVSS”, the “polyreactivity (PSR sort gate)” value is reported as “high polyreactivity”. Consider “QVQLVESGGGLVQAGGSLRLSCAASGSIFSYNGKGWYRQAPGKERELVATISASSVTTYYADSVKGRFTISRDNAKNTVYLQMNSLKPEDTAVYYCARDAYSVYYYVFLHWEYDYWGQGTQVTVSS”, for which the “polyreactivity (PSR sort gate)” value was “high polyreactivity”. For “QVQLVESGGGLVQEGGSLRLSCAAYGRIFAPYSMGWYRQAPGKERELVAAITSGGSTNYADSVKGRFTISRDNAKNTVYLQMNSLKPEDTSVYYCASEASYNYVKYVVTYVYWGQGTQVTVSS”, the “polyreactivity (PSR sort gate)” value is “high polyreactivity”.
